# The RNAGym collection of RNA variant scans (doi:10.7554/elife.90254)
# B1: LINE1-mini (parent)
# chain: GGCAGAGCUCAACACAGCGUGGCAAAGUGGCUGUGGCUAGACUGCC
# Variants of: B1
# Experiment: self-cleavage, relative activity (ratio to wild type); higher = more cleavage; in vitro, sequencing; the parent is a self-cleaving ribozyme
row,Variant,self-cleavage
1,A16U C45G,0.13
2,G19A G36C,0.16
3,G2U A16C,0.13
4,U9C A14G,0.03
5,C13G C42A,0.07
6,C42U G44A,0.16
7,A4G G7U,0.18
8,G2C C8A,0.17
9,U28A C45U,1.28
10,C18A G30C,1.99
11,A4U A14U,0.1
12,A41C C46A,0.05
13,A11C C45U,0.12
14,C23A C46A,0.98
15,G19A C45U,1.74
16,G5U C10G,0.03
17,G7C G17A,0.07
18,G21C G30A,1.86
19,G2U C31G,0.03
20,G22A U38A,0.33
21,A41U,0.67
22,C3A U28C,0.32
23,G17U G33C,0.02
24,C15G G22C,0.03

row,Variant,self-cleavage
1,C3G G19U,0.56
2,G1A G36U,0.1
3,C18G G21C,0.62
4,A24U A39U,1.99
5,G5A G7C,0.23
6,C15A A39U,0.06
7,A4C C42A,0.13
8,C13A G19A,0.15
9,G7U A41G,0.09
10,A4C U28C,0.22
11,G21A A25C,2.37
12,G30A A39U,1.69
13,A12U G40U,0.17
14,A4U G40A,0.17
15,G2C G36A,0.25
16,C8A G36C,0.29
17,A39C,0.26
18,U9C A24G,0.07
19,A25G U38A,0.46
20,A6U C18G,0.24
21,G19A G36U,0.09
22,G29A G40U,0.12
23,G2U G22U,0.11
24,G44U C45A,0.11

row,Variant,self-cleavage
1,G5U C18U,0.1
2,U32C U34C,0.16
3,C15A G33U,1.81
4,C37A C45A,0.19
5,A11U A24C,0.15
6,A24C G44A,0.18
7,U20G G27A,0.72
8,A6U A41G,2.27
9,U34C C45A,0.05
10,C15U U43G,0.44
11,G17C U43A,0.13
12,G29U C31U,0.19
13,G35C G36U,0.09
14,G17U A25U,0.12
15,U28A C31A,0.83
16,C31G G35U,0.03
17,A16G G29U,0.77
18,C8G C37A,0.04
19,A26U U28C,0.74
20,U9C G44A,0.04
21,G33C A39G,0.03
22,G17C C46U,0.5
23,G30U A39C,0.19
24,C10A U38G,0.05

row,Variant,self-cleavage
1,C18G U38C,0.16
2,C10G G29C,0.04
3,U32C C46U,0.2
4,G5U G21C,0.09
5,C13G C42U,0.12
6,G22A U32C,1.4
7,C13G G27C,0.08
8,G29U C42A,0.14
9,U34C C37A,0.09
10,U34A C37A,0.08
11,U38G U43A,0.02
12,G19C G35A,0.17
13,C18G A39U,0.47
14,A4U G36A,0.12
15,G29U A41U,0.9
16,G36C A39C,0.05
17,U28A A39C,0.15
18,G22A G30U,0.96
19,C13U C42U,0.09
20,C18A G22C,0.92
21,C13A G35C,0.07
22,A14U C15U,0.18
23,C3G C31U,0.07
24,G5A G17C,0.39

row,Variant,self-cleavage
1,G7C A25C,0.14
2,C10G U38A,0.06
3,A12U A41G,0.09
4,G29U C37G,0.04
5,C3U U38G,0.04
6,C3A C10A,0.07
7,G29C G44U,0.37
8,G17C U38A,0.14
9,C18G G19U,0.56
10,U28A G44U,0.33
11,C13A G36U,0.12
12,G7C G27U,0.11
13,A16U A26U,0.13
14,C8A G22U,0.24
15,U38A C46U,0.3
16,C31U G44U,0.05
17,G40U C46U,0.11
18,C18G G29C,0.49
19,G17C G33C,0.03
20,G22C A26U,0.82
21,C8G C42U,0.09
22,A12G G30C,0.08
23,G2U G35U,0.07
24,U9G C23A,0.11

row,Variant,self-cleavage
1,C13U G30C,0.09
2,A12C G22C,0.02
3,C3A U43A,0.39
4,C13A A24G,0.11
5,C18U C23U,1.07
6,C8G G27U,0.11
7,G22U U32C,0.6
8,A4G A14C,0.12
9,A12C A14C,0.02
10,G29A A41U,0.74
11,C8U U20A,0.21
12,G1A U28A,0.26
13,C15A G36A,0.14
14,G1U A12U,0.08
15,U34G G35C,0.12
16,A11G C13U,0.03
17,A6C C10A,0.11
18,C8A U32C,0.23
19,U9G G19C,0.06
20,G36C A41G,0.11
21,G19C C23U,0.83
22,U9A A16U,0.06
23,A6G A12C,0.05
24,G2C C3G,0.07

row,Variant,self-cleavage
1,A14G U28C,0.04
2,C3G A26G,0.36
3,C18U G44A,0.22
4,A14G G19U,0.54
5,C15A A41C,0.15
6,C31A G40A,0.04
7,G2C C10U,0.03
8,G35C,0.11
9,A6G,0.12
10,G5U G17A,0.1
11,G17U U32A,0.08
12,U9A G17A,0.07
13,U34A G36C,0.03
14,G5U C13G,0.23
15,G5C C23A,0.07
16,C13G G44U,0.06
17,C3U U43A,0.14
18,G2A G21C,0.46
19,U32G G36C,0.05
20,G7A U28C,0.11
21,A4U C42G,0.08
22,C3A A14C,0.16
23,A4C G21C,0.18
